In a protein production outcome set (Wang et al. 2014):

Experiment: label from the status in PepcDB records
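Also: failed if final PepcDB status was selected cloned or expressed and not failed if soluble or beyond.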

| Sequence | protein production |
| --- | --- |
| MRQTKLTKAARGRECQVRIPGVCNGNPETTVLAHYRLAGTCGVGKKPHDMQGAWCCSACHDACDGRSRAVGRETARQYHAEGVMRTQALLLNEGVLVE | not failed |
| MRQVFSTDQEYKADKSPENLFPLTEVTRKMEYEERFDQAVRVTGVGLFVNLGLTIFKLLAGILGNSTAMVADAVHSLSDFLTDVVVIFGFKIAKKPVDESHNYGHGKIETLSASLVGLMLLLVAGQILYYGVQKTLMFIEAGTLEQPAIIALYAALASVISKEIMYQYTILKARKINSMALTANAWHHRSDAFSSFCTMIGIGAAVFLGGKWVVLDPLMAVFLSFIILKVSLKIFHSSINELVEASLDEKTESEIRQIIQKTEGVKALSNLKTRRIGNNIAVDIRIKVDNALDIGEANRISIHVEHNLKKAFGPYTYVLVKAEPYEREPWGNPEDEKAREHPVNPEKNKVCLRNHSN | failed |
| MRRCPLCHSTQTHLLLQDKKRCFYICQTCWLTFADANSHLPPAAEKQRYGRSRIASKQRHLSQFILPLLTQIQQQQNGSLTGLNFGRVLDQTSLETIESAGHTFKQYDPFFAPDHETLKQEYDFICCYRVFEHFQYPIKEWSLLTRLLKPGGWLAISTPLLIDLEGFAKWHYKNNLTHVSFYQRQTFEYLASNSDFELLFAAKDLVLMQKTSLEHHHHHH | not failed |
| MRRFLVLLWLLSLALAAPRLVVEPEDGVKPLLDLIASAREEILVKMYLWTPSRMDVVEALGEAARRGVRVRVLLEREPSGGRVDLEVFQALKARGVEVRLTTPFRFVFVHEKSLVVDRKRAWVGTMNLTGSSFAANREYALILDDPAQVAEIAKVFEADWEGERLDLSQALLVWAPSRVLGGVKEGNARETLLALIRGAQRELFLEHQAMADPEVEAALKEALGRGVRVRLLGSPKEPGDTYFLAGALRLKEAGALVRFLPDPYVHAKVLVRDGEEALLGSLNLSANSIQANRELAVRFTAREAPEAFRRLLFVMEGDWEKALPENPFALPPVEGVIPWQEAPRYFGRVATVEGVIQAVEDRGTVAFLKFGPGESDLRLVVFPRSYGLFAQPFPQSYLGKKVRARGRIVLYAGYYEIVLEGPENLEVLDGGP | failed |
| MRRFVIGQAKNLIDQSRRRQLHHHKNLSFVSLIPPFSAPSDSSSRHLSSSSSSDMSASDSSSSLPVTLDTINPKVIKCEYAVRGEIVNIAQKLQEDLKTNKDAYPFDEIIYCNIGNPQSLGQQPITFFREVLALCSYTALLDESATHGLFSSDSIERAWKILDQIPGRATGAYSHSQGIKGLRDAIADGIEARDGFPADPNDIFMTDGASPGVHMMMQLLITSEKDGILCPIPQYPLYSASIALHGGTLVPYYLDEASGWGLEISELKKQLEDARSKGITVRALAVINPGNPTGQVLSEENQRDVVKFCKQEGLVLLADEVYQENVYVPDKKFHSFKKVARSMGYGEKDLALVSFQSVSKGYYGECGKRGGYMEVTGFTSDVREQIYKMASVNLCSNISGQILASLIMSPPKPGDDSYESYIAEKDGILSSLARRAKTLEEALNKLEGVTCNRAEGAMYLFPCLHLPQKAIAAAEAEKTAPDNFYCKRLLKATGIVVVPGSGFRQVPGTWHFRCTILPQEDKIPAIVDRLTAFHQSFMDEFRD | failed |
| MRRKLRYLNYRILIPYLILVVVGIILVYSASSDILLVNGFKPDVYGIRQAIYAAVAFFGFGIPFFALRLKVIKNPKFVAGFLIICILMLLWLVFLRFAHGSAAAVNGAVGWINLGFINLQPLEVTKLALVIYLAYVLDRRDGKLVRGKIKDNLSHPAMLAGFLMCLVIVEPDFGGTAILFMITLVMFSVSGVPVRLALTWLLGIILLVGAVFILVVLWNPKFLQDSYQFQRLMSFLHPFQLERKGGAQLVNSYYAIHNGGLFGVGLGNSMQKRGYLPEPYTDFILSITAEEIGVIFTIVLVGLLFYLMWQIMEVGINAVSQFDALICFGVTTIIFTEALFNIGAVLGLLPITGVTLPFISYGGSSMIVLTAAIGLVLNVSANEKMLKEKDETIA | failed |
| MRRLALLFPVLALLVGVWAFPLLGPLFRHGAVPNPFALKEPFTLLVYGSSPEYVEYHKRAPERFRGLADTILLVRLDPGANRVVVLSVPRDVWVLLPGHGWHKVNAASPLGGPELMKEAVARITGVRPDRYVVVSLEALRRGVDALGGVRVCVEKPMRYQDQAAGLVIDLEPGCQVLSGAQAEGYLRFRKDALGDIGRIQRQQAFFHALKDQLFSLPGLLRLPRAVAAVEPYVATDLTRGEKGALLGFLLRRPAFVSLLLPGRFAGGWAVDEAAWARLRAVYFEDREAWGEALAGKRAVVLFGPGQGALAQEAAERLKALGLSVSLRELALAPERTEVLENGPGRLAQALGEALGVPYRVSGEAALGADLTLRLGREGLPR | failed |
| MRRLLTAVLISTLGAASLVRADGPAPFSKVFEDISADQPGCAAGVMRGGKVIWSAGYGAADLTTGAAIQADTLFNLASVSKQFTGFAILQLQAQGRLSLEDPVRRFLPELPAYAQGIRIRHLLHHTSGLQDYMLLAELAGIPLSQRFTQQQALDLLVRQNSLMFPPGSEFSYSNSGYVLLSSIVERASGLSLKHYSRANIFLPLGMDHSSIVDQYPVQLPNLARGYEPGGQGKAQVAVDARWEQTGDGQVHSNVADLMRWLRNLSTGRVGGKALVENMRQTEPLNDGDPGYYGMGLANRSYRGLQELSHSGGWAGFNTDVAWYPKLDVATVVLCNSDDGRASERGRQLLDTLLGSPAPSGEADIPPPPPSIRALPKASLKTLVAGTYLDDGGHQLQLRRSGKGWSLETFPDVLPLTRQSDEVLVADNDGTPIYLAATSGGRIALNNPASTYALAPPWKPDDIRPYVGLYTLETSPGQLKVHARQGKLYVRIGLYTYPMQPLTAERFSAGELGVLSFAEQGAVLTSSVARNLRFGKVFAP | failed |
| MRRQAEAYKAQLAAMVESSDDAIIVKDLNAIITSWNAGAERIFGYQASEITGSSILALIPPERHEEEKGIMSLVKSGNRVDHFETMWWGKGKKPIDVSVTTSAVKDSDGNIVGISQIARDLEHHHHHH | failed |
| MRRQPKTRQESARMSIEAPETVVVSTWKVACDGGEGALGHPRVWLSIPHETGFVECGYCDRRYIHESFAAAKLEHHHHHH | not failed |
| MRRRVAAALVAAVLAAPALAQQPEPFEPEGYRTDNYRAPVPATLAGARVLTTAEAEAIWRDKSGAFIDVMPRAPKPKNLPEGTVWRDAPRRNIPGSLWLPDTGYGNLPPAMDDYLQRGLAQASRGDKAALLVIYCLADCWMSWNAARRALAYGYSNIAWYPDGSDGWERAALPTDEGQPEPRPDQ | failed |
| MRRSFLKTIGLGVIALFLGLLNPLSAASYPPIKNTKVGLALSSHPLASEIGQKVLEEGGNAIDAAVAIGFALAVVHPAAGNIGGGGFAVIHLANGENVALDFREKAPLKATKNMFLDKQGNVVPKLSEDGYLAAGVPGTVAGMEAMLKKYGTKKLSQLIDPAIKLAENGYAISQRQAETLKEARERFLKYSSSKKYFFKKGHLDYQEGDLFVQKDLAKTLNQIKTLGAKGFYQGQVAELIEKDMKKNGGIITKEDLASYNVKWRKPVVGSYRGYKIISMSPPSSGGTHLIQILNVMENADLSALGYGASKNIHIAAEAMRQAYADRSVYMGDADFVSVPVDKLINKAYAKKIFDTIQPDTVTPSSQIKPGMGQLHEGSNTTHYSVADRWGNAVSVTYTINASYGSAASIDGAGFLLNNEMDDFSIKPGNPNLYGLVGGDANAIEANKRPLSSMSPTIVLKNNKVFLVVGSPGGSRIITTVLQVISNVIDYNMNISEAVSAPRFHMQWLPDELRIEKFGMPADVKDNLTKMGYQIVTKPVMGDVNAIQVLPKTKGSVFYGSTDPRKEF | failed |
| MRRSFYHYLMTLKGPAKDSETDFANEAAKDIQFPKQTEDYHELSSYLEMNADYLSNMDIFDELWEKYLENNKLEHHHHHH | not failed |
| MRRSKADVERYIASVQGSAPSPREKSMKGFYFAKLYYEAKEYDLAKKYISTYINVQERDPKAHRFLGLLYEVEENIDKAVECYKRSVELNPTQKDLVLKIAELLCKNDVTDGRAKYWVERAAKLFPGSPAIYKLKEQLLDCKGEDGWNKLFDLIQSELYARPDDIHVNIRLVELYRSNKRLKDAVAHCHEADRNTALRSSLEWNLCVVQTLKEYLESLQCLDSDKSTWRATNKDLLLAYANLMLLTLSTRDVQEGRELLESFDSALQSVKSSVGGNDELSATFLETKGHFYMHVGSLLLKMGQQSDIQWRALSELAALCYLVAFQVPRPKVKLIKGEAGQNLLETMAHDRLSQSGHMLLNLSRGKQDFLKEVVESFANKSGQSALCDALFSSQSSKERSFLGNDDIGNLDGQVPDPDDLARYDTGAVRAHNGSLQHLTWLGLQWNSLSTLPAIRKWLKQLFHHLPQETSRLETNAPESICILDLEVFLLGVIYTSHLQLKEKCNSHHTSYQPLCLPLPVCRQLCTERQKTWWDAVCTLIHRKALPGTSAKLRLLVQREINSLRGQEKHGLQPALLVHWAQSLQKTGSSLNSFYDQREYIGRSVHYWRKVLPLLKMIRKKNSIPEPIDPLFKHFHSVDIQASEIGEYEEDAHITFAILDAVNGNIEDAMTAFESIKNVVSYWNLALIFHRKAEDIENDALSPEEQEECKNYLRKTRDYLIRILDDSDSNTSVVQKLWYISKQQKFGIWGWEDCTSVRV | failed |
| MRRTLVVPDVLLLGTLLAGLLLLSGCEGDYRPRAVGPIGEITVVMDSSHWTGPSGEALRANVTPWVETLPVSERSFQLRHLELTDERTYERVQDLKNVIIAAPLSDSTNETSFLRRRLSDEAEQAILDGQTAVVPKPNLWRRSQRIYYVAAASPDALAETFQSQGTQIRDTFTEATLQRMDRNMYEDDRRSALEDTLMQRHGFAVNMQSDFQIAVDTTTGSEGFVWLRRLLAQTRREFFVYYVEDVSPDQITPEWIYNTRDSLTRRHLRGNVRGFAKIDYRRPLKTEQRSFLDRYAYDSRGLWYMVAPLGGGNELRPVGGGGPFVNYTFYDQATDRVYMLDGSIFAPDNDKIDLLRQMEVMARTFRTAEGSRSPDASPTAAKLEHHHHHH | failed |
| MRSAAVLALLLCAGQVTALPVNSPMNKGDTEVMKCIVEVISDTLSKPSPMPVSQECFETLRGDERILSILRHQNLLKELQDLALQGAKERAHQQKKHSGFEDELSEVLENQSSQAELKEAVEEPSSKDVMEKREDSKEAEKSGEATDGARPQALPEPMQESKAEGNNQAPGEEEEEEEEATNTHPPASLPSQKYPGPQAEGDSEGLSQGLVDREKGLSAEPGWQAKREEEEEEEEEAEAGEEAVPEEEGPTVVLNPHPSLGYKEIRKGESRSEALAVDGAGKPGAEEAQDPEGKGEQEHSQQKEEEEEMAVVPQGLFRGGKSGELEQEEERLSKEWEDSKRWSKMDQLAKELTAEKRLEGQEEEEDNRDSSMKLSFRARAYGFRGPGPQLRRGWRPSSREDSLEAGLPLQVRGYPEEKKEEEGSANRRPEDQELESLSAIEAELEKVAHQLQALRRG | failed |
| MRSAGEPRWVVPILASPLLWHAARFALVSAYLLGGVVKLFDFAAAVAEQERFGLHPGWLWATLAIVVELGGSLLVLADRLVWLGAGALGVLTFVAMLTANAFWSAPAADRWIQANAFFEHFGLIAGFVLLAMLSDQRRSTS | failed |
| MRSSDILIVDDEVGIRDLLSEILQDEGYSVALAENAEEARKLRHQARPAMVLLDIWMPDCDGITLLKEWAKNGQLNMPVVVMSGHASIDTAVEATKIGAIDFLEKPISLQKLLSAVENALKHGAAQIETGPVFDKLGNSAAIQEMNREVEAAAKRTSPVFLTGEAGSPFETVARYFHKNGTPWVSPARVEYLIDMPMELLQKAEGGVLYVGDIAQYSRNIQTGITFIIGKAERCRVRVIASCSYAAGSDGISCEEKLAGLFSESVVRIPPLSMQHEDIPFLIQGIACNVAESQKITPTAFSDDALAVLSRYDWPGNFEQLQNVVTTLLLEADGQEIGIGAASSALGRGVPADGTGHMACGFDFNLPLRELREEVERRYFEYHIAQEGQNMSKVAQKVGLERTHLYRKLKQLGIGVSRRAGEKTEE | not failed |
